Literature values, collected in patent publication US12305200B2, “Methods and compositions for vault nanoparticle immobilization of therapeutic molecules and for vault targeting” (AUKERA, INC., priority 2017, dated 2025).

Molecular target: GRP-R (Homo sapiens, UniProt P30550)
Details: Accardo et al., EJNMMI Research 2016

Chain of GRP-R (P30550 whole entry): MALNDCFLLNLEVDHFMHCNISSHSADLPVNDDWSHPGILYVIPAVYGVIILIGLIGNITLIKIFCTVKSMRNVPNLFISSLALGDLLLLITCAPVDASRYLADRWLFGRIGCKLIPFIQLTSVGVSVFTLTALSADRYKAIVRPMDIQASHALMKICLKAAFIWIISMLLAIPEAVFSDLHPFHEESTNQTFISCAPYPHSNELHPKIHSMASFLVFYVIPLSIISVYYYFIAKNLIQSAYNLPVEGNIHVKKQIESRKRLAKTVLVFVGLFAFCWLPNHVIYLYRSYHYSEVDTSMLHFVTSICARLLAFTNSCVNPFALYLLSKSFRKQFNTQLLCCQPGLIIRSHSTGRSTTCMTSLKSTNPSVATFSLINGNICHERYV

affinity for the GRP-R: has been found to have affinity
Substance: Gin-Trp-Ala-Val-Gly-His-Leu-Met (SEQ ID NO.: 3)-NH2 [8-amino acid peptide of the ligand GRP]
